# Reference: patent US20220185901A1 (Bayer, published 2022)
# B1: TPP-13660 (484A-M232-A14-scFv-Fc-hIgG2) (Fc fusion)
# chain: EVQLLESGGGLVQPGGSLRLSCAASGFTFSSYAMSWVRQAPGKGLEWVANINQDGSEKNYVDSMRGRFTISRDNSKNTLYLQMNSLRAEDTAVYYCAREFDYWGQGTLVTVTSSGGGGSGGGGSGGGGSQSVLAQPPSASGTPGQRVTISCSGSSSNIGSNYVYWYQQLPGTAPKLLIYGNNKRPSGVPDRFSGSKSGTSASLAISGLRSEDEADYYCAAWDDSLNGRVFGGGTKLTVLGGGGSGGGGSGGGGSGVECPPCPAPPVAGPSVFLFPPKPKDTLMISRTPEVTCVVVDVSHEDPEVQFNWYVDGVEVHNAKTKPREEQFNSTFRVVSVLTVVHQDWLNGKEYKCKVSNKGLPAPIEKTISKTKGQPREPQVYTLPPSREEMTKNQVSLTCLVKGFYPSDIAVEWESNGQPENNYKTTPPMLDSDGSFFLYSKLTVDKSRWQQGNVFSCSVMHEALHNHYTQKSLSLSPG
# notes: Monospecific antibody (MsAB) against ALK-1; the construct name says scFv-Fc-hIgG2; not shown: human IgG2 Fc (and any linker), implied by the construct name scFv-Fc-hIgG2
# B2: TPP-13469 (484A-M010-C06-scFv-Fc-hIgG2) (Fc fusion)
# chain: EVQLLESGGGLVQPGGSLRLSCAASGFTFSDYYMTWIRQAPGKGLEWVSSISGGSTYYADSRKGRFTISRDNSENTLYLQMNSLRAEDTAVYYCARDFGVAGWFGQYGMDVWGQGTLVTVSSGGGGSGGGGSGGGGSQSVLTQPPSASGTPGQRVTISCTGSSSNIGAGYDVHWYQQLPGTAPKLLIYRSNQRPSGVPDRFSGSKSGTSASLAISGLRSEDEADYYCSSYAGNYNLVFGGGTKLTVLGGGGSGGGGSGGGGSGVECPPCPAPPVAGPSVFLFPPKPKDTLMISRTPEVTCVVVDVSHEDPEVQFNWYVDGVEVHNAKTKPREEQFNSTFRVVSVLTVVHQDWLNGKEYKCKVSNKGLPAPIEKTISKTKGQPREPQVYTLPPSREEMTKNQVSLTCLVKGFYPSDIAVEWESNGQPENNYKTTPPMLDSDGSFFLYSKLTVDKSRWQQGNVFSCSVMHEALHNHYTQKSLSLSPG
# notes: Monospecific antibody (MsAB) against BMPR-2; the construct name says scFv-Fc-hIgG2; not shown: human IgG2 Fc (and any linker), implied by the construct name scFv-Fc-hIgG2
# B3: TPP-13667 (484A-M198-J22-scFv-Fc-hIgG2) (Fc fusion)
# chain: EVQLLESGGGLVQPGGSLRLSCAASGFTFSNAWMNWVRQAPGKGLEWVSSISSSSSYIYYADSVKGRFTISRDNSKNTLYLQMNSLRAEDTAVYYCARAVAAGGMFWGLDQWGQGTLVTVTSSGGGGSGGGGSGGGGSQSVLTQPPSASGTPGQRVTISCSGSRSNIGSNSVHWYQQLPGTAPKLLIYGNSNRPSGVPDRFSGSKSGTSASLAISGLRSEDEADYYCQSYDSSLNDHVVFGGGTKLTVLGGGGSGGGGSGGGGSGVECPPCPAPPVAGPSVFLFPPKPKDTLMISRTPEVTCVVVDVSHEDPEVQFNWYVDGVEVHNAKTKPREEQFNSTFRVVSVLTVVHQDWLNGKEYKCKVSNKGLPAPIEKTISKTKGQPREPQVYTLPPSREEMTKNQVSLTCLVKGFYPSDIAVEWESNGQPENNYKTTPPMLDSDGSFFLYSKLTVDKSRWQQGNVFSCSVMHEALHNHYTQKSLSLSPG
# notes: Monospecific antibody (MsAB) against BMPR-2; the first row says hIgG2; not shown: human IgG2 Fc (and any linker), implied by the construct name scFv-Fc-hIgG2
# B4: TPP-13654 (484A-M233-M07-scFv-Fc-hIgG2) (Fc fusion)
# chain: EVQLLESGGGLVQPGGSLRLSCAASGFTFSIYAMSWVRQAPGKGLEWVSAISGSGGSTYYADSVKGRFTISRDNSKNTLYLQMNSLRAEDTAVYYCARDFDYWGQGTLVTVTSSGGGGSGGGGSGGGGSQSVLTQPPSASGTPGQRVTISCSGSSSNIGSNYVYWYQQLPGTAPKLLIYGNINRPSGVPDRFSGSKSGTSASLAISGLRSEDEADYYCAAWDDSLNGRVFGGGTKLTVLGGGGSGGGGSGGGGSGVECPPCPAPPVAGPSVFLFPPKPKDTLMISRTPEVTCVVVDVSHEDPEVQFNWYVDGVEVHNAKTKPREEQFNSTFRVVSVLTVVHQDWLNGKEYKCKVSNKGLPAPIEKTISKTKGQPREPQVYTLPPSREEMTKNQVSLTCLVKGFYPSDIAVEWESNGQPENNYKTTPPMLDSDGSFFLYSKLTVDKSRWQQGNVFSCSVMHEALHNHYTQKSLSLSPG
# notes: as for B1
# Experiments:
# Experiment in all cases: SPR, Biacore T200, antigen amine-coupled to the chip, antibody injected at 1.56-200 nM, 1:1 Langmuir fit, 25 C
# [1] = target: T1, human ALK-1-Fc (TPP-11726) (human)
# T1 construct: Used for panning, screening and SPR; also called hALK-1-Fc
# T1 sequence (chain, as listed by the source limits assumed): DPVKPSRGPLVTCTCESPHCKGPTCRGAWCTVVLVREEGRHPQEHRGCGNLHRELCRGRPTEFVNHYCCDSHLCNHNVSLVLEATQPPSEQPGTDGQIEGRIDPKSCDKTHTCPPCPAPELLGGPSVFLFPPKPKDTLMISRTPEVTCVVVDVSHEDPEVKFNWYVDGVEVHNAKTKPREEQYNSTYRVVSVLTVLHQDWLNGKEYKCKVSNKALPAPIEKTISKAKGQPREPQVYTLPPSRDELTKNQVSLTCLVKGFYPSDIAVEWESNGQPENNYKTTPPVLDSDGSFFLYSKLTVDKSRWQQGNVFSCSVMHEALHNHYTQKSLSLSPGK
# Method: (§1) SPR experiments for quantitative binding analyses were performed using a Biacore T200 instrument (GE Healthcare Biacore, Inc.) equipped with Series S Sensor Chips CMS (GE Healthcare Biacore, Inc.). Binding assays were carried out at 25° C. with assay buffer HBS-EP+ (10 mM HEPES pH 7.4, 150 mM NaCl, 3 mM EDTA, 0.05% Surfactant P20). Antigens were covalently immobilized to the chip surface via amine coupling chemistry. The same proteins that had previously been used to isolate the antibodies of the invention during panning and screening [murine ALK-1-Fc SEQ ID NO: 114, human ALK-1-Fc SEQ ID NO: 116, as well as BMPR-2-Fc SEQ ID NO: 115 (human and murine extracellular are identical)] were used here as […] to determine KD values. Reagents for amine coupling (1-ethyl-3-(3-dimethylaminopropyl) carbodiimide hydrochloride (EDC), N-hydroxysuccinimide (NHS), ethanolamine-HCl pH 8.5) were used from the Amine Coupling Kit (GE Healthcare, product code BR-1000-50). The sensor chip surface was activated with a freshly prepared solution of 0.2 M EDC and 0.05 M NHS passed over the chip surface for 420 seconds at a flow rate of 10 μl/min, followed by an injection of antigen (dissolved to 0.5 μg/ml in immobilization buffer, 10 mM sodium acetate pH 5.0) with a target level of 50 RU. Excess of activated groups were blocked with a 1 molar solution of ethanolamine injected at a flow rate of 10 μl/min for 420 seconds.
# (§2) The sensor surface was regenerated for 20 seconds with regeneration solution (glycine-HCl pH 1.5) after each assay cycle consisting of a single analyte injection.
# (§3) Obtained sensorgrams were double-referenced, (reference cell correction followed by buffer sample subtraction). KD values were calculated based on the ratio of dissociation (kd) and association (kₐ) rate constants which were obtained by globally fitting sensorgrams with a first order 1:1 Langmuir binding model, implemented in the Biacore Evaluation Software Package (Biacore T200 Evaluation Software Version 2.0, GE Healthcare Biacore, Inc.).
# [2] = target: T2, murine ALK-1-Fc (TPP-11724) (murine)
# T2 construct: also called mouse ALK-1
# T2 sequence (chain, as listed by the source limits assumed): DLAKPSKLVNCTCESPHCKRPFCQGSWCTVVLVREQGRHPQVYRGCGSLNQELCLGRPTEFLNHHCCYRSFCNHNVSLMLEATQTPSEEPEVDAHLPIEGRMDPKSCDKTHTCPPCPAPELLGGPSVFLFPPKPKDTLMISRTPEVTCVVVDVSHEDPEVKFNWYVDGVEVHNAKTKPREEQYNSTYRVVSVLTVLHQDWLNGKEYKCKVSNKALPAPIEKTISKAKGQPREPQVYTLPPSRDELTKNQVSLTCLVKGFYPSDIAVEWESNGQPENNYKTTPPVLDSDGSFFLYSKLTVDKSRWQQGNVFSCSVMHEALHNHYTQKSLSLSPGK
# Method: as §1, §2, §3
# [3] = target: T3, BMPR-2-FcHis6 (TPP-11725) (human)
# T3 construct: also called human BMPR-2
# T3 sequence (chain, as listed by the source limits assumed): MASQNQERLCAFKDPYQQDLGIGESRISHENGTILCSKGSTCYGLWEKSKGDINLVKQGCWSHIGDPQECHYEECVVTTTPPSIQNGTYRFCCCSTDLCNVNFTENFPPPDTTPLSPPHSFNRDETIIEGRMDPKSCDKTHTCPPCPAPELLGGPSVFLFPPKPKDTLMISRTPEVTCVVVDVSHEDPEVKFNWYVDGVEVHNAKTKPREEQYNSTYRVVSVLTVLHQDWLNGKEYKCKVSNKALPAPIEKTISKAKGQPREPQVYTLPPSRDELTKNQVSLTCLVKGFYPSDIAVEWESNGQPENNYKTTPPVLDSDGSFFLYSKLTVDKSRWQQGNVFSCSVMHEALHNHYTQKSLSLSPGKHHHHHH
# Method: as §1, §2, §3
binder,measurement,setting,value
B1,Kd,[1],8.5 nM
same,Kd,[2],25 nM
B2,Kd,[3],6.2 nM
B3,Kd,[3],8.8 nM
B4,Kd,[1],8.6 nM
same,Kd,[2],25 nM
